Measured values published in patent US20230028110A1 (ADAPTATE BIOTHERAPEUTICS, published 2023).
Positions count from the first letter of the chain named. Names and notes keep the numbering of the source. Where two headings read alike, the source gives them in different places. One block for each binder: values may come before it.

Tests used:
[1] = target: T1, L1 (DV1-GV4), soluble human Vδ1/Vγ4 γδ TCR heterodimer in leucine zipper format (human); assay: SPR (Reichert 4SPR), antibody on Protein A chip, antigen flown over
T1 construct: Biotinylated in the DELFIA ranking; also called Antigen L1 (TRDV1/TRGV4); human DV1-GV4; not shown: gamma chain: Vγ4 (TRGV4) domain on a TCR constant region, leucine zipper, histidine tag
T1 sequence (main, as listed by the source): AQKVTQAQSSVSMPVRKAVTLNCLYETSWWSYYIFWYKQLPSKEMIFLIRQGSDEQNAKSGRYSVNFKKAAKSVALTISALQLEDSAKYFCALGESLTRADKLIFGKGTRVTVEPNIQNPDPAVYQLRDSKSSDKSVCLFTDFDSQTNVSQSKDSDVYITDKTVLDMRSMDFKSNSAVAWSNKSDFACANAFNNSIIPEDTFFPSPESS

Recombinant human OX40 = target: T2, Recombinant human OX40 (human, UniProt P43489 29-216, limits assumed); assay: as above
T2 construct: also called CD134
T2 sequence (looked up): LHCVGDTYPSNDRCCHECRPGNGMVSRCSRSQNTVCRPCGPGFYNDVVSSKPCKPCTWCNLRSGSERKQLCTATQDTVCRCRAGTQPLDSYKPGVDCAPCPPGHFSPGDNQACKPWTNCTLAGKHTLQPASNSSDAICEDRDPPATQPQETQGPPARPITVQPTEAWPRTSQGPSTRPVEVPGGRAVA
Method: Recombinant human Vδ1 heterodimer or human OX40 was flown over the cell at a top concentration of 100 nM.

[2] = target: T3, OX40 on OX40+ NFAT Jurkat cells (human, UniProt P43489); assay: cell-based or functional assay
T3 sequence (receptor, looked up): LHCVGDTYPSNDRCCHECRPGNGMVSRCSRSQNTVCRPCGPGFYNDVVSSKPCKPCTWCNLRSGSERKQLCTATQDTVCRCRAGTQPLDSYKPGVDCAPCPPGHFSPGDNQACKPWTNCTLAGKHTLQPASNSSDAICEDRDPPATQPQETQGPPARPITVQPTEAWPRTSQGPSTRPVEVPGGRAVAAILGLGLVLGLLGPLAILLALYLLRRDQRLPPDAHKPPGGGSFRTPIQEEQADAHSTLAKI

[3] = target: T4, OX40 on activated CD4 T-cells; assay: flow cytometry on anti-CD3/anti-CD28-activated CD4 T-cells, anti-human IgG secondary antibody, % cells bound IgG
T4 construct: also called OX40+ CD4 T-cells
T4 chain: T3 sequence (receptor, looked up)
Method: Initially CD4+ T-cells were negatively selected by magnetic sorting from PBMC buffy coats extracted from whole blood. Following activation by anti-CD3/anti-CD28 antibodies conjugated to Dynabeads (Invitrogen), cell surface expression of OX40 was elevated on CD4 T-cells. […] After washing, cells were incubated for a further 15 minutes with anti-human IgG secondary antibodies before washing and fixing. The amount of antibody bound to each cell type was determined by flow cytometry.

[4] = target: T5, Vδ1 chain of the γδ TCR on human Vδ1 γδ T cells (human); assay: flow cytometry on Vδ1 γδ T-cells, anti-human IgG secondary antibody, % cells bound IgG
T5 construct: whole, on cells; also called cell surface Vδ1 TCR; Vδ1-positive γδ T cells
T5 sequence (A0A1B0GX56 22-115, stated change not applied): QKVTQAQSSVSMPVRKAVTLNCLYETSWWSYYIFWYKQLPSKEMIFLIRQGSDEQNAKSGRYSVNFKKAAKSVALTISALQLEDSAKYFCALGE

[5] = target: T1, L1 (DV1-GV4), soluble human Vδ1/Vγ4 γδ …; assay: DELFIA ELISA, 0.4 nM human TRDV1 antigen; heat map cell of the clone
[6] = target: T6, Cyno DV1/GV77 antigen, recombinant cynomolgus Vδ1 heterodimer (cynomolgus monkey); assay: DELFIA ELISA, cyno antigen; heat map cell of the clone
T6 construct: also called cyno TRDV1; Cyno DV1-77; not shown: delta CDR3/J, TCR constant region, zipper and tag; the whole gamma chain GV77
T6 sequence (delta, as listed by the source limits assumed): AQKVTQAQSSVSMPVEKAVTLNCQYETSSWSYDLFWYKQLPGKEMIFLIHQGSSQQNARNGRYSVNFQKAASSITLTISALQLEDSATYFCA

[7] = target: T1, L1 (DV1-GV4), soluble human Vδ1/Vγ4 γδ …; assay: SPR, captured IgG, human DV1-GV4 flown over
[8] = target: T6, Cyno DV1/GV77 antigen, recombinant …; assay: SPR, captured IgG, cyno DV1-GV77 flown over
[9] = target: T1, L1 (DV1-GV4), soluble human Vδ1/Vγ4 γδ …; assay: SPR (Reichert 4SPR), antibody on Protein A chip, Vδ1 heterodimer at 6.25-100 nM as analyte
[10] = target: T6, Cyno DV1/GV77 antigen, recombinant …; assay: as above
[11] = target: T1, L1 (DV1-GV4), soluble human Vδ1/Vγ4 γδ …; assay: SPR (Reichert 4SPR), antibody on Protein A chip
[12] = target: T6, Cyno DV1/GV77 antigen, recombinant …; assay: SPR (Reichert 4SPR), antibody on Protein A chip
[13] = target: T1, L1 (DV1-GV4), soluble human Vδ1/Vγ4 γδ …; assay: SPR (Reichert 4SPR), antibody on Protein A chip, antigen flown over; remark: listed apart in the source
Method: (§1) Recombinant human Vδ1 heterodimer or human PD-1 was flown over the cell at a top concentration of 100 nM.

[14] = target: T5, Vδ1 chain of the γδ TCR on human Vδ1 γδ …; assay: flow cytometry on Vδ1 γδ T-cells, anti-human IgG secondary antibody, % cells bound IgG; remark: listed apart in the source
Method: After washing, cells were incubated for a further 15 minutes with anti-human IgG secondary antibodies before washing and fixing. The amount of antibody bound to each cell type was determined by flow cytometry.

[15] = target: PD-1 on PD-1+ NFAT Jurkat cells (Promega, JA2191) (UniProt Q15116 25-288, limits assumed); assay: cell-based or functional assay
Chain of PD-1 on PD-1+ NFAT Jurkat cells (Promega, JA2191) (Q15116 25-288 limits assumed): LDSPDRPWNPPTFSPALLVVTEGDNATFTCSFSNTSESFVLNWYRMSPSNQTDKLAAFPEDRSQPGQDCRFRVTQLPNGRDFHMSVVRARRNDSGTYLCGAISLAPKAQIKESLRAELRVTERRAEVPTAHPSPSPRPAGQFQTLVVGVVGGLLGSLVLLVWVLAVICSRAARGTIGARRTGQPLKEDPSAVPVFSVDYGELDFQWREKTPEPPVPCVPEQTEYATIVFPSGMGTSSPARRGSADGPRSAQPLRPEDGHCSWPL

Recombinant human PD-1 = target: T7, Recombinant human PD-1 (human, UniProt Q15116 25-167, limits assumed); assay: SPR (Reichert 4SPR), antibody on Protein A chip, antigen flown over; column head prints TIGIT
T7 construct: also called programmed cell death protein 1
T7 sequence (Q15116 25-167 limits assumed): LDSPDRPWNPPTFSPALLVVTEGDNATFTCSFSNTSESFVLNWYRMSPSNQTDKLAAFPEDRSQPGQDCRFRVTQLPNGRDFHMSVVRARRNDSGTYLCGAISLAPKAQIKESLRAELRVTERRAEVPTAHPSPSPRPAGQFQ
Method: as §1

Kd [1]: 1.2 nM
Kd (Recombinant human OX40): 1.63 nM
EC50 (read off the curve), OX40+ NFAT Jurkat activation assay [2]: ~20 nM
EC50 (read off the curve) [3]: ~2 nM
EC50 (read off the curve) [4]: ~0.3 nM
B1: Anti-Vδ1xanti-OX40 (ADT1-4-2xpogalizumab) bispecific antibody (bispecific antibody, human IgG1, kappa)
light: DIQMTQSPPALSASVGDRVTITCRASQDINDWLAWYQHKPGKAPKLLIYDASSLESGVPLRFSGSGSGTEFTLTISSLQPDDFATYYCQQKYSAPQVTFGQGTRLEIKRTVAAPSVFIFPPSDEQLKSGTASVVCLLNNFYPREAKVQWKVDNALQSGNSQESVTEQDSKDSTYSLSSTLTLSKADYEKHKVYACEVTHQGLSSPVTKSFNRGEC
heavy: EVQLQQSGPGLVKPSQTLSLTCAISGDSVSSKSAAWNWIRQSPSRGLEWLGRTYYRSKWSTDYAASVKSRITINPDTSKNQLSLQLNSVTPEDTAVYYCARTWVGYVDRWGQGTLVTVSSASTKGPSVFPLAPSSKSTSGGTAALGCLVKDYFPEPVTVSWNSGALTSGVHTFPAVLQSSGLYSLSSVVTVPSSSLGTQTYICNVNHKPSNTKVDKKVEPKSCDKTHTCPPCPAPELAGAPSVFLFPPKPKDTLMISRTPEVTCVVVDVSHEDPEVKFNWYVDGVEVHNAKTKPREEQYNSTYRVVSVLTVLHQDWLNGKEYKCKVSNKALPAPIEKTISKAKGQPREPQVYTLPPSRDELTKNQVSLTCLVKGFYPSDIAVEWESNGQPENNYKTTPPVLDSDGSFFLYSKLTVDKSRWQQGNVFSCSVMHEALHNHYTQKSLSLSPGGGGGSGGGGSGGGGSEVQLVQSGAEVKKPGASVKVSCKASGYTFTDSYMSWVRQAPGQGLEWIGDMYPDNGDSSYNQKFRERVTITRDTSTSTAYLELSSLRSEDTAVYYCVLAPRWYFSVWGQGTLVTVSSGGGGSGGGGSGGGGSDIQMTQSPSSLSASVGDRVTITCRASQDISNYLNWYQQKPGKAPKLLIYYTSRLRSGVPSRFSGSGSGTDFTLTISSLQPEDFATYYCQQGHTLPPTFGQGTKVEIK
notes: also called ADT1-4-2xOX40; Vδ1-OX40 bispecific antibody

ELISA signal (heat map) [5]: 42700
ELISA signal (heat map) [6]: 139000
Kd [7]: 0.541 nM
Kd [8]: 15.1 nM
B2: ADT1-4-8 (antibody, V domains shown)
VH: EVQLQQSGPGLVKPSQTLSLTCAISGDSVSSKSAAWNWIRQSPSRGLEWLGRTYYRSKWSTDYAASVKSRITINPDTSKNQLSLQLNSVTPEDTAVYYCARTWVGYADVWGQGTLVTVSS
VL: DIQMTQSPPALSASVGDRVTITCRASQDINDWLAWYQHKPGKAPKLLIYDASSLESGVPLRFSGSGSGTEFTLTISSLQPDDFATYYCQQKYSAPQVTFGQGTRLEIK

Kd [9]: 4 nM
Kd [10]: 61 nM
fold reduction in affinity against ADT1-4-2 [11]: ~11 fold
fold reduction in affinity against ADT1-4-2 [12]: ~23 fold
B3: ADT1-4-2 (L74S) (antibody, V domains shown)
VH: B2 VH with A107V, V109R
VL: DIQMTQSPPALSASVGDRVTITCRASQDINDWLAWYQHKPGKAPKLLIYDASSLESGVPSRFSGSGSGTEFTLTISSLQPDDFATYYCQQKYSAPQVTFGQGTRLEIKR
notes: Captured on Protein A

Kd [13]: 1.5 nM
EC50 (read off the curve) [14]: ~0.7 nM
EC50 (read off the curve), PD-1/PD-L1 blockade reporter assay [15]: ~1 nM
Kd (Recombinant human PD-1): 0.9 nM
B4: Anti-Vδ1xAnti-PD-1 (ADT1-4-2xpembrolizumab) bispecific antibody (bispecific antibody, human IgG1, kappa)
light: EIVLTQSPATLSLSPGERATLSCRASKGVSTSGYSYLHWYQQKPGQAPRLLIYLASYLESGVPARFSGSGSGTDFTLTISSLEPEDFAVYYCQHSRDLPLTFGGGTKVEIKRTVAAPSVFIFPPSDEQLKSGTASVVCLLNNFYPREAKVQWKVDNALQSGNSQESVTEQDSKDSTYSLSSTLTLSKADYEKHKVYACEVTHQGLSSPVTKSFNRGEC
heavy: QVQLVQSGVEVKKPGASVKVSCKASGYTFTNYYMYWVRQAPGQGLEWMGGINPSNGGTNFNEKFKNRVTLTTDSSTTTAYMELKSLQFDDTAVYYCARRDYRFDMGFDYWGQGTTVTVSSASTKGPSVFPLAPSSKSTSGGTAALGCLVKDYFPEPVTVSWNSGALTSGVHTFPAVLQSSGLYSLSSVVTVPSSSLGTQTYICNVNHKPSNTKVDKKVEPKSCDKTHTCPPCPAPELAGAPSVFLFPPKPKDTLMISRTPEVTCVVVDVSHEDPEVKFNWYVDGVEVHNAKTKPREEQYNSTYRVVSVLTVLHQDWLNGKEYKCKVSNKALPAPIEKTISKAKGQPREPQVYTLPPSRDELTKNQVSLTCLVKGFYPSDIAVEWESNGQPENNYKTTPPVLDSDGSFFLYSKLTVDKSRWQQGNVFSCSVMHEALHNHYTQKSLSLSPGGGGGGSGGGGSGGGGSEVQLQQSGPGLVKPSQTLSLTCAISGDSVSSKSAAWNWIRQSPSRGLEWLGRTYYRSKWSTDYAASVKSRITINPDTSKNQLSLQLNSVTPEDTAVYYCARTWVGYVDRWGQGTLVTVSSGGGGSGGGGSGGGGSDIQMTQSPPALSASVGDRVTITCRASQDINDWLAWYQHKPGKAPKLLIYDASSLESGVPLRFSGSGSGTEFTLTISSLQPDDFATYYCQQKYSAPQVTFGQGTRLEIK
notes: also called PD-1xADT1-4-2; Vδ1-PD-1 bispecific antibody
